The record followed here is US20090291088A1, “THERAPEUTIC COMBINATIONS OF ANTI-IGF-1R ANTIBODIES AND OTHER COMPOUNDS” (Biogen Idec MA Inc., priority 2008, published 2009).

The target in experiment [1] is human IGF-1R(1-902)-His10 (human) (UniProt P08069). The experiment in a line: ELISA, plate coated with rh-IGF-1R, bound antibody detected with anti-mouse IgG Fc-HRP.
Experiment [2] concerns the target human IGF-1R(1-903)-Fc (human) (UniProt P08069). The experiment in a line: ELISA on hIGF-1R-Fc, competitor Zenon-labelled αIR3. Background: In an ELISA, binding on a coated surface is turned into a signal by an enzyme label.
For experiment [3] the target is unchanged. Briefly: ELISA on hIGF-1R-Fc, competitor biotinylated M14-G11.
For experiment [4] the target is unchanged. The experiment in a line: competition ELISA: biotinylated hIGF-1R-Fc on streptavidin plate, 320 nM human IGF-1 His, detection with anti-His-HRP; blocked ligand human IGF-1 His.

In general, EC50 (read off the curve) refers to the concentration that produces a half-maximal response. Read a low EC50 (read off the curve) as a more potent agent. αIR3 (antibody): in experiment [1], the EC50 (read off the curve) was found to be 0.2 nM. Besides, the percent competition (relative to self-competition) in experiment [2] and in experiment [3] was 90 to 100% each time. Also, the IC50 (read off the curve) in experiment [4] came to 5 nM.
